Measured values as given in the supplement of paper PMC9112550, “Optimization of the antimicrobial peptide Bac7 by deep mutational scanning” (BMC Biology, 2022).

What follows are sequences tested on Escherichia coli TOP10 (assay: shrunken log2 fold change of peptide-encoding DNA abundance (4.5 h post-induction vs induction); higher = less antimicrobial activity (less host growth inhibition)). Conditions: time post-induction: 4.5 h; library: site-saturation at positions 5, 18, 19, 20.
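Further: peptides expressed intracellularly from a pBAD plasmid library in pooled LB shake-flask culture, induced with 0.3% L-arabinose, DNA abundance read by NGS, three biological replicates, DESeq2 with apeglm shrinkage.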

RRIRLRPPRLPRPRPRPELSPRP and RRIRGRPPRLPRPRPRPIFRPRP are within 0.2 log units of each other in “shrunken log2 fold change” value: -0.113 for the first, 0.0691 for the second.

RRIRSRPPRLPRPRPRPRPIPRP and RRIRHRPPRLPRPRPRPIYFPRP are within 0.2 log units of each other in “shrunken log2 fold change” value: -0.0533 for the first, -0.123 for the second.

Compared with RRIRVRPPRLPRPRPRPSSFPRP, RRIRERPPRLPRPRPRPLEPPRP is higher in “shrunken log2 fold change” value: -0.423 for the first, 0.0736 for the second.

RRIRPRPPRLPRPRPRPDFCPRP and RRIRHRPPRLPRPRPRPKMEPRP are within 0.2 log units of each other in “shrunken log2 fold change” value: -0.0633 for the first, -0.00674 for the second.

Going from RRIRMRPPRLPRPRPRPCTEPRP to RRIRWRPPRLPRPRPRPDWMPRP, the “shrunken log2 fold change” value rises from -0.0649 to 0.212.

RRIRYRPPRLPRPRPRPAGTPRP and RRIRVRPPRLPRPRPRPWIYPRP are within 0.2 log units of each other in “shrunken log2 fold change” value: -0.0595 for the first, 0.0875 for the second.

First: RRIRGRPPRLPRPRPRPDKIPRP
Second: RRIRHRPPRLPRPRPRPIVCPRP
The “shrunken log2 fold change” value of the first is higher: 0.813 for the first, -0.0297 for the second.

Compared with RRIRYRPPRLPRPRPRPGPSPRP, RRIRPRPPRLPRPRPRPALFPRP is higher in “shrunken log2 fold change” value: -0.125 for the first, 0.2 for the second.

Going from RRIRCRPPRLPRPRPRPNVIPRP to RRIRCRPPRLPRPRPRPVWDPRP, the “shrunken log2 fold change” value rises from -0.374 to -0.107.

Compared with RRIRWRPPRLPRPRPRPMMDPRP, RRIRPRPPRLPRPRPRPPDEPRP is higher in “shrunken log2 fold change” value: 0.000475 for the first, 0.444 for the second.

Compared with RRIRMRPPRLPRPRPRPDSTPRP, RRIRRRPPRLPRPRPRPRRCPRP is lower in “shrunken log2 fold change” value: 1.09 for the first, 0.615 for the second.

Going from RRIRARPPRLPRPRPRPMMEPRP to RRIRYRPPRLPRPRPRPPYPPRP, the “shrunken log2 fold change” value falls from 0.0919 to -0.257.

First: RRIRSRPPRLPRPRPRPCPEPRP
Second: RRIRIRPPRLPRPRPRPHRAPRP
The “shrunken log2 fold change” value of the first is lower: -0.444 for the first, 0.0775 for the second.

Going from RRIRQRPPRLPRPRPRPYGGPRP to RRIRSRPPRLPRPRPRPLCSPRP, the “shrunken log2 fold change” value rises from -0.29 to 0.0443.

First: RRIRDRPPRLPRPRPRPPRGPRP
Second: RRIRMRPPRLPRPRPRPSELPRP
The “shrunken log2 fold change” value of the first is higher: 1.31 for the first, 0.12 for the second.

First: RRIRERPPRLPRPRPRPDDSPRP
Second: RRIRNRPPRLPRPRPRPWDWPRP
The “shrunken log2 fold change” value of the first is lower: -0.435 for the first, 0.0265 for the second.

RRIRIRPPRLPRPRPRPTPKPRP and RRIRIRPPRLPRPRPRPDASPRP are within 0.2 log units of each other in “shrunken log2 fold change” value: -0.0169 for the first, -0.00609 for the second.

Going from RRIRARPPRLPRPRPRPGMLPRP to RRIRGRPPRLPRPRPRPWVAPRP, the “shrunken log2 fold change” value falls from 0.334 to -0.026.

RRIRHRPPRLPRPRPRPAEAPRP and RRIRVRPPRLPRPRPRPDFFPRP are within 0.2 log units of each other in “shrunken log2 fold change” value: -0.0896 for the first, -0.0229 for the second.

RRIRKRPPRLPRPRPRPSSRPRP and RRIRNRPPRLPRPRPRPGLQPRP are within 0.2 log units of each other in “shrunken log2 fold change” value: -0.038 for the first, -0.113 for the second.

Compared with RRIRGRPPRLPRPRPRPIGIPRP, RRIRVRPPRLPRPRPRPHPTPRP is higher in “shrunken log2 fold change” value: -0.159 for the first, 0.23 for the second.

RRIRFRPPRLPRPRPRPVKEPRP and RRIRERPPRLPRPRPRPYCKPRP are within 0.2 log units of each other in “shrunken log2 fold change” value: -0.0554 for the first, 0.0936 for the second.

First: RRIRARPPRLPRPRPRPFCQPRP
Second: RRIRHRPPRLPRPRPRPGVAPRP
The “shrunken log2 fold change” value of the first is lower: -0.0229 for the first, 0.207 for the second.

Going from RRIRARPPRLPRPRPRPFIVPRP to RRIRGRPPRLPRPRPRPWCEPRP, the “shrunken log2 fold change” value rises from -0.286 to 0.0333.

First: RRIRKRPPRLPRPRPRPHYTPRP
Second: RRIRERPPRLPRPRPRPPEHPRP
The “shrunken log2 fold change” value of the first is lower: -0.395 for the first, 0.114 for the second.

First: RRIRYRPPRLPRPRPRPFWVPRP
Second: RRIRTRPPRLPRPRPRPKPSPRP
The “shrunken log2 fold change” value of the first is lower: -0.0684 for the first, 0.335 for the second.

RRIRVRPPRLPRPRPRPSNMPRP and RRIRNRPPRLPRPRPRPGESPRP are within 0.2 log units of each other in “shrunken log2 fold change” value: -0.124 for the first, -0.111 for the second.

RRIRQRPPRLPRPRPRPNIVPRP and RRIRSRPPRLPRPRPRPIECPRP are within 0.2 log units of each other in “shrunken log2 fold change” value: -0.044 for the first, -0.139 for the second.

RRIRQRPPRLPRPRPRPSMWPRP and RRIRDRPPRLPRPRPRPRMCPRP are within 0.2 log units of each other in “shrunken log2 fold change” value: 0.0422 for the first, 0.0171 for the second.

RRIRHRPPRLPRPRPRPDYPPRP and RRIRERPPRLPRPRPRPDVQPRP are within 0.2 log units of each other in “shrunken log2 fold change” value: -0.111 for the first, -0.0408 for the second.

Going from RRIRLRPPRLPRPRPRPLYNPRP to RRIRGRPPRLPRPRPRPCQTPRP, the “shrunken log2 fold change” value rises from -0.305 to 0.0774.

Compared with RRIRYRPPRLPRPRPRPQVLPRP, RRIRLRPPRLPRPRPRPFGNPRP is higher in “shrunken log2 fold change” value: -0.725 for the first, -0.498 for the second.

RRIRNRPPRLPRPRPRPTVVPRP and RRIRRRPPRLPRPRPRPTWGPRP are within 0.2 log units of each other in “shrunken log2 fold change” value: 0.229 for the first, 0.42 for the second.

Going from RRIRIRPPRLPRPRPRPPSEPRP to RRIRDRPPRLPRPRPRPLCHPRP, the “shrunken log2 fold change” value rises from -0.118 to 0.0833.

First: RRIRCRPPRLPRPRPRPLDKPRP
Second: RRIRMRPPRLPRPRPRPECKPRP
The “shrunken log2 fold change” value of the first is lower: -0.328 for the first, 0.0491 for the second.

Compared with RRIRCRPPRLPRPRPRPIHSPRP, RRIRLRPPRLPRPRPRPWRPPRP is higher in “shrunken log2 fold change” value: -0.221 for the first, 0.105 for the second.

RRIRDRPPRLPRPRPRPKMIPRP and RRIRIRPPRLPRPRPRPPHLPRP are within 0.2 log units of each other in “shrunken log2 fold change” value: -0.185 for the first, -0.14 for the second.

RRIRCRPPRLPRPRPRPNLVPRP and RRIRQRPPRLPRPRPRPTEPPRP are within 0.2 log units of each other in “shrunken log2 fold change” value: -0.192 for the first, 0.00378 for the second.

First: RRIRFRPPRLPRPRPRPRYDPRP
Second: RRIRMRPPRLPRPRPRPMALPRP
The “shrunken log2 fold change” value of the first is lower: -0.408 for the first, 0.517 for the second.

Compared with RRIRERPPRLPRPRPRPFKPPRP, RRIRTRPPRLPRPRPRPKYFPRP is lower in “shrunken log2 fold change” value: -0.22 for the first, -0.444 for the second.

First: RRIRWRPPRLPRPRPRPPTVPRP
Second: RRIRIRPPRLPRPRPRPRATPRP
The “shrunken log2 fold change” value of the first is lower: 0.144 for the first, 0.728 for the second.

RRIRGRPPRLPRPRPRPRCIPRP and RRIRLRPPRLPRPRPRPKEMPRP are within 0.2 log units of each other in “shrunken log2 fold change” value: 0.273 for the first, 0.0765 for the second.

First: RRIRQRPPRLPRPRPRPSAMPRP
Second: RRIRNRPPRLPRPRPRPWACPRP
The “shrunken log2 fold change” value of the first is higher: 0.218 for the first, 0.0014 for the second.

First: RRIRPRPPRLPRPRPRPFLRPRP
Second: RRIRHRPPRLPRPRPRPPAPPRP
The “shrunken log2 fold change” value of the first is lower: -0.327 for the first, 0.466 for the second.

Compared with RRIRARPPRLPRPRPRPWCMPRP, RRIRGRPPRLPRPRPRPPGWPRP is higher in “shrunken log2 fold change” value: -0.223 for the first, 1.04 for the second.

Compared with RRIRQRPPRLPRPRPRPHALPRP, RRIRLRPPRLPRPRPRPMFLPRP is higher in “shrunken log2 fold change” value: -0.6 for the first, -0.0362 for the second.

First: RRIRARPPRLPRPRPRPFNFPRP
Second: RRIRWRPPRLPRPRPRPIESPRP
The “shrunken log2 fold change” value of the first is lower: -0.0477 for the first, 0.467 for the second.

Compared with RRIRLRPPRLPRPRPRPSVGPRP, RRIRTRPPRLPRPRPRPKFWPRP is higher in “shrunken log2 fold change” value: 0.101 for the first, 0.318 for the second.

RRIRHRPPRLPRPRPRPALQPRP and RRIRRRPPRLPRPRPRPEGSPRP are within 0.2 log units of each other in “shrunken log2 fold change” value: 0.0339 for the first, 0.223 for the second.

Compared with RRIRRRPPRLPRPRPRPMPHPRP, RRIRWRPPRLPRPRPRPVWLPRP is higher in “shrunken log2 fold change” value: -0.124 for the first, 0.284 for the second.

Compared with RRIRSRPPRLPRPRPRPPREPRP, RRIRLRPPRLPRPRPRPMDTPRP is lower in “shrunken log2 fold change” value: 0.622 for the first, -0.323 for the second.

Compared with RRIRIRPPRLPRPRPRPFGVPRP, RRIRGRPPRLPRPRPRPRISPRP is higher in “shrunken log2 fold change” value: -0.0635 for the first, 0.353 for the second.

Compared with RRIRKRPPRLPRPRPRPFFKPRP, RRIRWRPPRLPRPRPRPVWFPRP is higher in “shrunken log2 fold change” value: 0.0178 for the first, 0.563 for the second.

Going from RRIRMRPPRLPRPRPRPGAIPRP to RRIRWRPPRLPRPRPRPVWWPRP, the “shrunken log2 fold change” value falls from 1.4 to 0.729.

RRIRYRPPRLPRPRPRPLAWPRP and RRIRNRPPRLPRPRPRPGRNPRP are within 0.2 log units of each other in “shrunken log2 fold change” value: -0.0165 for the first, -0.202 for the second.

RRIRFRPPRLPRPRPRPEIMPRP and RRIRVRPPRLPRPRPRPQDIPRP are within 0.2 log units of each other in “shrunken log2 fold change” value: -0.269 for the first, -0.328 for the second.

Compared with RRIRERPPRLPRPRPRPIKYPRP, RRIRFRPPRLPRPRPRPQRHPRP is higher in “shrunken log2 fold change” value: -0.351 for the first, -0.0437 for the second.

Compared with RRIRCRPPRLPRPRPRPYKTPRP, RRIRDRPPRLPRPRPRPTITPRP is higher in “shrunken log2 fold change” value: -0.404 for the first, 0.0537 for the second.

RRIRFRPPRLPRPRPRPAKQPRP and RRIRRRPPRLPRPRPRPHYNPRP are within 0.2 log units of each other in “shrunken log2 fold change” value: -0.0234 for the first, -0.202 for the second.

Compared with RRIRYRPPRLPRPRPRPEQNPRP, RRIRMRPPRLPRPRPRPRNSPRP is lower in “shrunken log2 fold change” value: 0.00317 for the first, -0.294 for the second.

First: RRIRPRPPRLPRPRPRPWNDPRP
Second: RRIRCRPPRLPRPRPRPGEQPRP
The “shrunken log2 fold change” value of the first is lower: 0.0243 for the first, 0.262 for the second.

Going from RRIRKRPPRLPRPRPRPRCPPRP to RRIRDRPPRLPRPRPRPWFYPRP, the “shrunken log2 fold change” value falls from 0.52 to -0.0139.

For RRIRYRPPRLPRPRPRPPWNPRP, the “shrunken log2 fold change” value was -0.161.
